According to article PMC546141:

Molecular target: T1, mPrrp-2xRBD (mouse, UniProt Q9JII5 1-201)
T1 sequence: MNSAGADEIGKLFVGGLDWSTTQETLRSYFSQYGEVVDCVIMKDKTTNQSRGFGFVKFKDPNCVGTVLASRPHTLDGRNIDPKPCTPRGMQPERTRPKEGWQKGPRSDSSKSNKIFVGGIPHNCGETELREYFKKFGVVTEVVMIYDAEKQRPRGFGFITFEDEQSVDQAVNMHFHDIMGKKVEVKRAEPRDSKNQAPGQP
Experiment: EMSA

| Binder | Kd [nM] |
| --- | --- |
| S-13 26-73 U52C (structured_RNA) RNA: GGCAUAGCCAAAUAGUUUGUGGCCUUAGCUUAGUAUAGCUGCGGGCUAUGGGAUC | ~55 |
| S-13 26-73 U53C (structured_RNA) RNA: GGCAUAGCCAAAUAGUUUGUGGCCUUAGUCUAGUAUAGCUGCGGGCUAUGGGAUC | ~75 |
